This is an account of results in patent US20220229068A1, “DETECTION OF PROTEIN TO PROTEIN INTERACTIONS” (THE GOVERNING COUNCIL OF THE UNIVERSITY OF TORONTO, priority 2019, published 2022).

Test in all cases: SIMPL ELISA, bait-IN/prey-CIC
The target in assay [1] is T1, VAV1 (prey, CIC format) (human) (UniProt P15498).
T1 sequence (looked up): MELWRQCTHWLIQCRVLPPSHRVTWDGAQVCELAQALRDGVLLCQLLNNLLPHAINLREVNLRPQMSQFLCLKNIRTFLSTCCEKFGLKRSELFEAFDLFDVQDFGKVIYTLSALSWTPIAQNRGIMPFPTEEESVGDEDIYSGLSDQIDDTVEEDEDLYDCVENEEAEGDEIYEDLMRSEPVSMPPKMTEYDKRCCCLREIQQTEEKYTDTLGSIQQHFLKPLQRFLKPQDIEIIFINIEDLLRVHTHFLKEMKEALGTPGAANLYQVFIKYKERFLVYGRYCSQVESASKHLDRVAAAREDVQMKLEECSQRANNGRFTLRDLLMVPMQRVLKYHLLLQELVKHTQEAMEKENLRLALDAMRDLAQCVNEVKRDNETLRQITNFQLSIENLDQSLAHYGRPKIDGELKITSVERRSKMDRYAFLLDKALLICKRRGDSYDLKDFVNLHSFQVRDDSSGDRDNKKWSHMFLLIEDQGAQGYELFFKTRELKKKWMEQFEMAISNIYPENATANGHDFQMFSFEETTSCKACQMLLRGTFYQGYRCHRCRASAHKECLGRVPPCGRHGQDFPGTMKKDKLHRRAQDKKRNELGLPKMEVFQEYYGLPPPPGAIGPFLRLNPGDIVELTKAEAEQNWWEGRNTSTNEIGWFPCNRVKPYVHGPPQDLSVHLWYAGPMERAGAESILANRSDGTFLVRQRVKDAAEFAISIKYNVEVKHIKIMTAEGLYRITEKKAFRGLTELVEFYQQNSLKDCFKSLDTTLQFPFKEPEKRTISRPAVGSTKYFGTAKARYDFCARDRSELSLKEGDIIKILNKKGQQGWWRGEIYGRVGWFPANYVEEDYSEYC

The target in assay [2] is CRADD (prey, CIC format) (human) (UniProt P78560).
Chain of CRADD (prey, CIC format) (human) (P78560 whole entry): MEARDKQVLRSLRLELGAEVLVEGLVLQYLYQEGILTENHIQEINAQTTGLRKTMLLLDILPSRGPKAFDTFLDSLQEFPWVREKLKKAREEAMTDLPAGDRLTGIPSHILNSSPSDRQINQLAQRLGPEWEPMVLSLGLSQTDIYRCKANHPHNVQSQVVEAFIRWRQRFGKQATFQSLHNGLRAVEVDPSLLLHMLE
For assay [3], the target named is HGS (prey, CIC format) (human) (UniProt O14964).
For assay [4], the target named is CD58 (prey, CIC format) (human) (UniProt P19256).
Chain of CD58 (prey, CIC format) (human) (P19256 29-250 limits assumed): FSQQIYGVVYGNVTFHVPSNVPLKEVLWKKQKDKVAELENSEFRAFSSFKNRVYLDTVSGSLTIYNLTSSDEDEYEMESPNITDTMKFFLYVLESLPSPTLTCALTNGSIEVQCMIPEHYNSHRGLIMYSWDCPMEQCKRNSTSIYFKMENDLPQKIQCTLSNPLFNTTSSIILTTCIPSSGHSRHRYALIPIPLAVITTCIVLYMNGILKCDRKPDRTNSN
Assay [5] deals with GTF2F2 (prey, CIC format) (human) (UniProt P13984).
Chain of GTF2F2 (prey, CIC format) (human) (P13984 whole entry): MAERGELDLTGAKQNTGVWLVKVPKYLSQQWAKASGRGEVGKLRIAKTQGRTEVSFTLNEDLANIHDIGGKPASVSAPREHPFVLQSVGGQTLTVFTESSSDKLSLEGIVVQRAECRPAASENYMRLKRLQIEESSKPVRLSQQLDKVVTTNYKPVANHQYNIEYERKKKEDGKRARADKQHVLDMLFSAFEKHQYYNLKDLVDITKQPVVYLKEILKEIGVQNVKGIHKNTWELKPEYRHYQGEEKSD
In assay [6] the target is UBE2I (prey, CIC format) (human) (UniProt P63279).
Chain of UBE2I (prey, CIC format) (human) (P63279 whole entry): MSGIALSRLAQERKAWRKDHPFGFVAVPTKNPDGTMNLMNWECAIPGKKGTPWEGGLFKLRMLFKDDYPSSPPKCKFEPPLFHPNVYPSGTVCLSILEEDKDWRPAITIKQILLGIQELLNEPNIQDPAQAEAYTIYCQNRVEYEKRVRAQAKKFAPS
Assay [7] has as its target PDGFRB (prey, CIC format) (human) (UniProt P09619).
The target of assay [8] is PTK2 (prey, CIC format) (human) (UniProt Q05397).
Chain of PTK2 (prey, CIC format) (human) (Q05397 whole entry): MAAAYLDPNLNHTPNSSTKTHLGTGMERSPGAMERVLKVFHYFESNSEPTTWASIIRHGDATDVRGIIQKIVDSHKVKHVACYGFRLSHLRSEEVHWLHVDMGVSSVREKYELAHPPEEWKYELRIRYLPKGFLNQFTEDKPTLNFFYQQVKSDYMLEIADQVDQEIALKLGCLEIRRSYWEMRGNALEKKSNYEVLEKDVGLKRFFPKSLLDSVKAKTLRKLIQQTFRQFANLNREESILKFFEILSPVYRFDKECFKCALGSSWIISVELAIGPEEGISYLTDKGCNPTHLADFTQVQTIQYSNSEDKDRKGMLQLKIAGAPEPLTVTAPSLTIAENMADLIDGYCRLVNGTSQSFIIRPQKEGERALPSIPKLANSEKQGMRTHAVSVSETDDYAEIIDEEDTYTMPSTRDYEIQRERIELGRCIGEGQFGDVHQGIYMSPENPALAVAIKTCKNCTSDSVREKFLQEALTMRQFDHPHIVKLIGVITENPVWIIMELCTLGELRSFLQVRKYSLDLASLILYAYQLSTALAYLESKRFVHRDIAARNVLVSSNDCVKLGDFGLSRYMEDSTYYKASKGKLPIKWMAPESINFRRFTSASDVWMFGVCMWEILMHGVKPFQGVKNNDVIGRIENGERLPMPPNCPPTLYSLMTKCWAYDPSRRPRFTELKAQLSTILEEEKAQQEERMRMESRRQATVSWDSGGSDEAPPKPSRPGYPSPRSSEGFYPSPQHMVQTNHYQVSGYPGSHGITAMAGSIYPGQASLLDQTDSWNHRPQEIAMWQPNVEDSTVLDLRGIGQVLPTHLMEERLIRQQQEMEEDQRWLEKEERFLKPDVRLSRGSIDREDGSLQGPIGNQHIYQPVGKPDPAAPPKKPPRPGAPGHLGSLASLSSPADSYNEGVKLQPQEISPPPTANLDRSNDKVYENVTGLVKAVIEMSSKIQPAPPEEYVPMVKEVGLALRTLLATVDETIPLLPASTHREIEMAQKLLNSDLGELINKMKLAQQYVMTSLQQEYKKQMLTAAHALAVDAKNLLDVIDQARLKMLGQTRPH
Assay [9] deals with S100A7 (prey, CIC format) (human) (UniProt P31151).
Chain of S100A7 (prey, CIC format) (human) (P31151 whole entry): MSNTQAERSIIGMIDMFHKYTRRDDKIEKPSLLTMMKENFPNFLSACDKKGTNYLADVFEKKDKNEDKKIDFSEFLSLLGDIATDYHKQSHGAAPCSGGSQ
Assay [10] concerns the target T2, LAT (prey, CIC format) (human) (UniProt O43561).
T2 sequence (looked up): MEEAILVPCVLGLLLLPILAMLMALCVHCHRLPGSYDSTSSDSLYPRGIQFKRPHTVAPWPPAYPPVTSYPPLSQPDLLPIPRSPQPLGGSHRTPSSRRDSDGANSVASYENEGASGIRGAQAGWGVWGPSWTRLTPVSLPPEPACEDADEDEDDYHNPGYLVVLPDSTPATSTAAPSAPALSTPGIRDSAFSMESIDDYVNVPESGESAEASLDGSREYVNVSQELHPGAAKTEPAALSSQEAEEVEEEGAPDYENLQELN

Assay [11] concerns the target T3, PEX3 (prey, CIC format) (human) (UniProt P56589).
T3 sequence (looked up): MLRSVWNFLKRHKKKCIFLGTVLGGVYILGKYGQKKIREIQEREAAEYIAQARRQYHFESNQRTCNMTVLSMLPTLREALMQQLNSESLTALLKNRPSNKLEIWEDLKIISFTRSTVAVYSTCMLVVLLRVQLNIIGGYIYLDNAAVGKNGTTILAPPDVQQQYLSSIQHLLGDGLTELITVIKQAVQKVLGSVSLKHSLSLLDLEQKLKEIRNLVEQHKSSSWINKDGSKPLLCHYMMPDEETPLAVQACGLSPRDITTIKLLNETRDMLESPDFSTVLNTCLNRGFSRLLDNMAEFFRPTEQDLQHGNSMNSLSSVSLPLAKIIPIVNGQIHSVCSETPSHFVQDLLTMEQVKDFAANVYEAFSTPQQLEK

Assay [12] addresses T4, NOD1 (prey, CIC format) (human) (UniProt Q9Y239).
T4 sequence (looked up): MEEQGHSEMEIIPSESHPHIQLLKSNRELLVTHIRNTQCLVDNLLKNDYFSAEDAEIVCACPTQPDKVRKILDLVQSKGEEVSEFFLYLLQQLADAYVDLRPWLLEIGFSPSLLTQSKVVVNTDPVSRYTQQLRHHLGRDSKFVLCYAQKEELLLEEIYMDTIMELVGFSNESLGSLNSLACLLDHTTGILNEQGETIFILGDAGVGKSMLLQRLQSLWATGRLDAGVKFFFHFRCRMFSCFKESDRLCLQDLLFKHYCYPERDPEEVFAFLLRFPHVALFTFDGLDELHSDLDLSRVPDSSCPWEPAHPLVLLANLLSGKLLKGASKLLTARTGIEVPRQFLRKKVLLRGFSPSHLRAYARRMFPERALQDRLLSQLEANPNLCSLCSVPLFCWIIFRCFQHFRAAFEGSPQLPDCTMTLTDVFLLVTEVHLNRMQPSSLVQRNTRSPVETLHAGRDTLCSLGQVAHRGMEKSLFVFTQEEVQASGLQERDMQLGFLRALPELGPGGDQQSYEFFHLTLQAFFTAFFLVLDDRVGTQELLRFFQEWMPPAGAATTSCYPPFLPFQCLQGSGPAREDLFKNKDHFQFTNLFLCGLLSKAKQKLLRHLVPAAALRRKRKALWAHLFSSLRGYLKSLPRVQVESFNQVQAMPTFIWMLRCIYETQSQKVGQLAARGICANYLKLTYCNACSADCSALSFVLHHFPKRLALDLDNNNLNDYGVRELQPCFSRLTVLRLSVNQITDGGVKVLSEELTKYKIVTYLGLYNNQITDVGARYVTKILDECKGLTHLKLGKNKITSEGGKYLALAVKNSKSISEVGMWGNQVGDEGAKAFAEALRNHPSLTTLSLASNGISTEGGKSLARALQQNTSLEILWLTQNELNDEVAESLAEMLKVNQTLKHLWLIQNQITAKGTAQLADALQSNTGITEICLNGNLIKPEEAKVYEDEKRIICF

Assay [13] deals with NCK1 (prey, CIC format) (human) (UniProt P16333).
Assay [14] has as its target LSM2 (prey, CIC format) (human) (UniProt Q9Y333).
Assay [15] addresses LGALS3BP (prey, CIC format) (human) (UniProt Q08380).
Assay [16] concerns the target FGFR1 (prey, CIC format) (human) (UniProt P11362).
The target in assay [17] is T5, NRG1 (prey, CIC format) (human) (UniProt Q02297).
T5 sequence (looked up): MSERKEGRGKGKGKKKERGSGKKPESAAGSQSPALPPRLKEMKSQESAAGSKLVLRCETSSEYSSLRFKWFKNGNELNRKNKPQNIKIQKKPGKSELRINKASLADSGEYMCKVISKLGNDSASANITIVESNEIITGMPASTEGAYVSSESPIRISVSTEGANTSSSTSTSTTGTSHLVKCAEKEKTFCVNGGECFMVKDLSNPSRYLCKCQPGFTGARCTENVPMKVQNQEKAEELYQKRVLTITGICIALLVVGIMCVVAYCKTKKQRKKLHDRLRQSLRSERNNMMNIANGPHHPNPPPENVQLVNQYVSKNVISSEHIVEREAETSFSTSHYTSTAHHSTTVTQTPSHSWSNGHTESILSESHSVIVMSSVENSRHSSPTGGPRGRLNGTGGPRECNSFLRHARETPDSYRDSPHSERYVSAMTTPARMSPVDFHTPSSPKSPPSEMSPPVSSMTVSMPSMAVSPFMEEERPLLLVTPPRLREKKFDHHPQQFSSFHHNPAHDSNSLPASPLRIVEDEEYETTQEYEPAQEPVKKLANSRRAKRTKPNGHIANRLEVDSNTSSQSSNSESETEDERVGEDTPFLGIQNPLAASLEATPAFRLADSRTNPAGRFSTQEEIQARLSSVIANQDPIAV

Assay [18] addresses T6, PEX19 (prey, CIC format) (human) (UniProt P40855).
T6 sequence (looked up): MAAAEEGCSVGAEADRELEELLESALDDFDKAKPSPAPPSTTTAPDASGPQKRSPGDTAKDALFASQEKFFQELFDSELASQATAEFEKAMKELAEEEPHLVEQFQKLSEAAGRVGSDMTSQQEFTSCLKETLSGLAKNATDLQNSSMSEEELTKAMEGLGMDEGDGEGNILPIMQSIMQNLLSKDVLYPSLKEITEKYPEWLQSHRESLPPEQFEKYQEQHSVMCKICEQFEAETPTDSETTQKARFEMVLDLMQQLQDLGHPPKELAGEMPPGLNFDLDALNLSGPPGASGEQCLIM

Assay [19] has as its target EZR (prey, CIC format) (human) (UniProt P15311).
Assay [20] has as its target SRC (prey, CIC format) (human) (UniProt P12931).
Assay [21] addresses RAD23A (prey, CIC format) (human) (UniProt P54725).
Assay [22] addresses TCL1A (prey, CIC format) (human) (UniProt P56279).
In assay [23] the target is RPA3 (prey, CIC format) (human) (UniProt P35244).
Chain of RPA3 (prey, CIC format) (human) (P35244 whole entry): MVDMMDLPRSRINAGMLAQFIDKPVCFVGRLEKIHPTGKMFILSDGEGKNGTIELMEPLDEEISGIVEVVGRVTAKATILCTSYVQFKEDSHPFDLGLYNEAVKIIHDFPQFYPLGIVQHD
Assay [24] has as its target GRB2 (prey, CIC format) (human) (UniProt P62993).
The target of assay [25] is SMAD4 (prey, CIC format) (human) (UniProt Q13485).
Chain of SMAD4 (prey, CIC format) (human) (Q13485 whole entry): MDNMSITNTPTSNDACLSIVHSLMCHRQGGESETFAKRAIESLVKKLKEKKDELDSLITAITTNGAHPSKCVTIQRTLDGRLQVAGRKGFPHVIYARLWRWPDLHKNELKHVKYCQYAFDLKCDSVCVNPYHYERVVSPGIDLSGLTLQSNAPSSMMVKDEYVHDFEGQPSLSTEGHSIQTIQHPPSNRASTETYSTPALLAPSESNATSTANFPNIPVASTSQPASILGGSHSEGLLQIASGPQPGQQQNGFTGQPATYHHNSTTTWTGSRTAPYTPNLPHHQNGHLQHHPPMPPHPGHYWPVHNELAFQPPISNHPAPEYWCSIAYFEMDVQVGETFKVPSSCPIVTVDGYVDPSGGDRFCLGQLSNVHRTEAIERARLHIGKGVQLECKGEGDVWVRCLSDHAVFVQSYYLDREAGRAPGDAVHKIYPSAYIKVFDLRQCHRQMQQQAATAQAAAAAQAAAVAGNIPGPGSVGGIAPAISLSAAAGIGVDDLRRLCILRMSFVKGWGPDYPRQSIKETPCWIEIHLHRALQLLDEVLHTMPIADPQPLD
Assay [26] addresses CDK6 (prey, CIC format) (human) (UniProt Q00534).

Chain of LGALS3BP (prey, CIC format) (human) (Q08380 19-585 limits assumed): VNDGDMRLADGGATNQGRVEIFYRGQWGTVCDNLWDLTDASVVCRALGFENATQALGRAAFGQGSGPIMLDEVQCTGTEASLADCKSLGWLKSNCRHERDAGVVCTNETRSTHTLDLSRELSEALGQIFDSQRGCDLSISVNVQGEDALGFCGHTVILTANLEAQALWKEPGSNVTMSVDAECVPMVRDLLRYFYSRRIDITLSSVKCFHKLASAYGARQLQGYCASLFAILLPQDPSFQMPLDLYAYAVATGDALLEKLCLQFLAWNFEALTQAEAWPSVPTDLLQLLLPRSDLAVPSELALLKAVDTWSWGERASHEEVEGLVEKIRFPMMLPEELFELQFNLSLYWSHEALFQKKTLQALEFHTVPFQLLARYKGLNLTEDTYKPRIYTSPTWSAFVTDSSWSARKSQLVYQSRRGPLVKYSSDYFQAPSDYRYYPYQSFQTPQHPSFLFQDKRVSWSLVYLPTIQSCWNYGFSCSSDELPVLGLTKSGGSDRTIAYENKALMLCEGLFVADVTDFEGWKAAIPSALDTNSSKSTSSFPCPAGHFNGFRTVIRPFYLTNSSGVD
Chain of CASP2 (bait, IN format) (P42575 whole entry): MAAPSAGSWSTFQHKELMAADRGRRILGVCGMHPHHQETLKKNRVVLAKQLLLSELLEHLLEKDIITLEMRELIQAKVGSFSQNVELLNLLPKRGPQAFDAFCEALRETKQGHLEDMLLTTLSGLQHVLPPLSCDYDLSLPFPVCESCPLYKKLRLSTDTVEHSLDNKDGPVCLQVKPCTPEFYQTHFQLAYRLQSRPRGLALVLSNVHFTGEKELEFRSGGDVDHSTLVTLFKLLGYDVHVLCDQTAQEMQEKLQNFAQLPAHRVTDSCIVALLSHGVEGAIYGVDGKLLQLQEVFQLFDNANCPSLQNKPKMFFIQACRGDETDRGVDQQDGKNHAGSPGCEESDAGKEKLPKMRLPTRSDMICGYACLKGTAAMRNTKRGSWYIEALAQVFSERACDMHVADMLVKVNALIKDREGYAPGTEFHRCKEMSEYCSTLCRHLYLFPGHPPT
Chain of LSM2 (prey, CIC format) (human) (Q9Y333 whole entry): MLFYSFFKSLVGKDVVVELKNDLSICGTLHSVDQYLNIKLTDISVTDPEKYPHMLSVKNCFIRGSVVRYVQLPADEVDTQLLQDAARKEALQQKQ
Chain of TCL1A (prey, CIC format) (human) (P56279 whole entry): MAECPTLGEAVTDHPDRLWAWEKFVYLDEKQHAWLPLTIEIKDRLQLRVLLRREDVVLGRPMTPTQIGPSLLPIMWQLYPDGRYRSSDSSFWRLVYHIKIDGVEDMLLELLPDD
Chain of CDK6 (prey, CIC format) (human) (Q00534 whole entry): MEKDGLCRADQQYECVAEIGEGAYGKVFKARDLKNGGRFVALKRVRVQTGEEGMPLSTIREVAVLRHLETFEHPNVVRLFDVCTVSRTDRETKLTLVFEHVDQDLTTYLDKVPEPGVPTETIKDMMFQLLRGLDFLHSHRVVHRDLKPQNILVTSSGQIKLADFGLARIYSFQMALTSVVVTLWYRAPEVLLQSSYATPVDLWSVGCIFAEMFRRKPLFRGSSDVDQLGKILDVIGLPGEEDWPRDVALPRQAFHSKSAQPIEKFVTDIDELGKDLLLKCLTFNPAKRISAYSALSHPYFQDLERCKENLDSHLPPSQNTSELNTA
Chain of RAD23A (prey, CIC format) (human) (P54725 whole entry): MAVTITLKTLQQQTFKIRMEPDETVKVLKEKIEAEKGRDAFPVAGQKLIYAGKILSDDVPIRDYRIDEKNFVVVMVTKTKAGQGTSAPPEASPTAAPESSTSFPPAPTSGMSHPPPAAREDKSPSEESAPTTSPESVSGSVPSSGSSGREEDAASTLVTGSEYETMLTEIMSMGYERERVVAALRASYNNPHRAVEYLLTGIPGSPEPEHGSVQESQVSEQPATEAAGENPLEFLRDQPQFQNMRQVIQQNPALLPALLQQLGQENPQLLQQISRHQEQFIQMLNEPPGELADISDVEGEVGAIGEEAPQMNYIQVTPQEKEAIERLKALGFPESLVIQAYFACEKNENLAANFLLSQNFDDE
Chain of GRB2 (prey, CIC format) (human) (P62993 whole entry): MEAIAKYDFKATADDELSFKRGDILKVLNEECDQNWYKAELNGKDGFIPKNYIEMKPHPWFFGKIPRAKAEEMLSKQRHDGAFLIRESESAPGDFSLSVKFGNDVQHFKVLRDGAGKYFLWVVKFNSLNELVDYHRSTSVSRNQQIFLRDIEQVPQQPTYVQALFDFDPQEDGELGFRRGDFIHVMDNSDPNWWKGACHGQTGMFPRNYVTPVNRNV

Consider “CASP2 (bait, IN format) (from UniProt P42575 1-452)”, for which the PLU mean in assay [1] is 0.696; in [2] it was 2.45.

For “CD2 (bait, IN format) (from UniProt P06729 25-351) (receptor)”, the PLU mean in assay [3] stood at 0.253; in assay [4] it was 0.972; in [5], 0.299.

Consider “CRK (bait, IN format) (from UniProt P46108 1-304)”, for which the PLU mean in assay [6] is 0.153; in assay [7], 0.261.

With “FABP5 (bait, IN format) (from UniProt Q01469 1-135)”, the PLU mean in [8] is 0.174; in assay [9] it was 0.134.

On to “GRB2 (bait, IN format) (from UniProt P62993 1-217)”, for which the PLU mean stood at 0.741 in assay [8], 1.39 in [1], 0.223 in [10] and 0.0588 in assay [11].

Regarding “GTF2F1 (bait, IN format) (from UniProt P35269 1-517)”, the PLU mean in assay [5] worked out at 3.24; in [12], 0.133.

For the substance “LCP2 (bait, IN format) (from UniProt Q13094 1-533)”, the PLU mean in assay [1] was found to be 0.789; in [13] it was 0.662; in assay [2], 0.193.

As for “LGALS3 (bait, IN format) (from UniProt P17931 1-250)”, the PLU mean in [14] is 0.162; in assay [15], 0.248.

Turning to “LSM3 (bait, IN format) (from UniProt P62310 1-102)”, the PLU mean in [14] is 3.03; in [15], 0.129; in assay [16], 0.272.

On to “PEX14 (bait, IN format) (from UniProt O75381 1-377)”, for which the PLU mean in assay [17] came to 0.31; in assay [18] it was 2.17.

In the case of “PRKAR2A (bait, IN format) (from UniProt P13861 1-404)”, the PLU mean amounted to 0.123 in assay [19] and 0.186 in assay [20].

On to “PSMD4 (bait, IN format) (from UniProt P55036 1-377)”, for which the PLU mean in assay [21] came to 0.919; in assay [12], 0.845; in assay [22] it was 0.108.

“RPA2 (bait, IN format) (from UniProt P15927 1-270)”: the figures for the PLU mean in assay [9] and in assay [23] were 0.0606 and 2.72, respectively.

“SMAD1 (bait, IN format) (from UniProt Q15797 1-465)”: the PLU mean in [24] was 0.151; in assay [25], 0.182.

Regarding “TNFSF10 (bait, IN format) (from UniProt P50591 1-281) (ligand)”, in assay [26], the PLU mean amounted to 0.316.

The substance “TP53 (bait, IN format) (from UniProt P04637 1-393)” gave a PLU mean in [6] of 0.194.
